Measured values from patent publication US5686070A, “Methods for treating bacterial pneumonia” (Genentech, Inc., priority 1995, dated 1997).

Key:
[1] = molecular target: T1, recombinant human IL-8, (ser-IL-8)72 (human, UniProt P10145); experiment: competitive binding RIP with unlabeled IL-8, Scatchard analysis
[2] = molecular target: T1, recombinant human IL-8, (ser-IL-8)72
Human IL-8 [3] = experiment: Human IL-8 mediated neutrophil chemotaxis, 96-well chamber, calcein AM-labeled neutrophils; type: cell-based
Experimental: Human neutrophils were isolated, counted and resuspended at 5×10^6 cells/ml in Hank's balanced salt solution (abbreviated HBSS; without calcium and magnesium) with 0.1% bovine serum albumin. The neutrophils were labeled by adding calcein AM (Molecular Probe, Eugene, Oreg.) at a final concentration of 2.0 μM. Following a 30 minute incubation at 37° C., cells were washed twice with HBSS-BSA and resuspended at 5×10^6 cells/ml.
Chemotaxis experiments were carried out in a Neuro Probe (Cabin John, Md.) 96-well chamber, model MBB96. Experimental samples (buffer only control, IL-8 alone or IL-8 +Fabs) were loaded in a Polyfiltronics 96-well View plate (Neuro Probe Inc.) placed in the lower chamber. […]
The relative number of neutrophils migrating through the filter (Neutrophil migration index) was determined by measuring fluorescence intensity of the filter and the fluorescence intensity of the contents of the lower chamber and adding the two values together. Fluorescence intensity was measured with a CytoFluor 2300 fluorescent plate reader (Millipore Corp. Bedford, Mass.) configured to read a Corning 96-well plate using the 485-20 nm excitation filter and a 530-25 emission filter, with the sensitivity set at 3.

Human IL-8 [4] = experiment: IL-8 mediated release of elastase by neutrophils (mAb 5.12.14); type: cell-based; conditions: 1:1 ratio of IL-8 to mAb
Experimental: One of the antibodies, mAb 5.12.14, was further studied to determine whether it could block the IL-8 mediated release of elastase by neutrophils. Briefly, human neutrophils were resuspended in Hanks balanced salt solution (Gibco, Grand Island, N.Y.) containing 1.0% BSA, Fraction V (Sigma, St. Louis, Mo.), 2 mg/ml alpha-D-glucose (Sigma), 4.2 mM sodium bicarbonate (Sigma) and 0.01M HEPES, pH 7.1 (JRH Bioscience, Lenexa, Kans.). A stock of cytochalasin B (Sigma) was prepared (5 mg/ml in dimethylsulfoxide (Sigma) and stored at 2°-8° C. Cytochalasin B was added to the neutrophil preparation to produce a final concentration of 5 μg/ml, and incubated for 15 min at 37° C. Human IL-8 was incubated with mAb 5.12.14 (20 μl), or a negative control antibody, in 1 ml polypropylene tubes (DBM Scientific, San Fernando, Calif.) for 30 min at 37° C. The final assay concentrations of IL-8 were 50 and 500 nM. The monoclonal antibodies were diluted to produce the following ratios (IL-8:Mab): 1:50, 1:10, 1:2, 1:1, and 1:0.25. Cytochalasin B-treated neutrophils were added (100 μl/tube) and incubated for 2 hours at 25° C. The tubes were centrifuged (210×g, 2°-8° C.) for 10 min, and supernatants were transferred to 96 well tissue culture plates (30 μl/well). […] Absorbance was measured at 405 nm (SLT 340 ATTC plate reader, SLT Lab Instruments, Austria).

[5] = Isoelectric focusing (IEF) pattern; type: physicochemical; conditions: IEF polyacrylamide gel pH 3-9
Experimental: The isoelectric focusing (IEF) pattern of each mAb was determined by applying purified antibodies on an IEF polyacrylamide gel (pH 3-9, Pharmacia) using the Fast gel system (Pharmacia, Piscataway, N.J.). The IEF gel was pretreated with pharmalyte containing 1% Triton X100 (Sigma, St. Louis, Mo.) for 10 min before loading the samples. The IEF pattern was visualized by silver staining according to the instructions from the manufacturer. All of the monoclonal antibodies had different IEF patterns, confirming that they originated from different clones.

IL-8 [6] = experiment: Competitive binding ELISA (epitopes), biotinylated mAb vs unlabeled mAb; parameters: species or system human; conditions: ratio of biotinylated mAb to unlabeled mAb 1:100
Experimental: To assess whether these monoclonal antibodies bound to the same epitopes, a competitive binding ELISA was performed. […] Thus, mAb 4.1.3 and mAb 5.2.3 bind to a different epitope(s) than the epitope recognized by monoclonal antibodies 12.3.9, 4.8 and 5.12.14.

IL-8 [7] = experiment: Receptor binding assay: 125I-IL-8 bound to human neutrophils in presence of mAbs; conditions: 1:25 molar ratio of IL-8 to mAb
Experimental: To assess the ability of these monoclonal antibodies to neutralize IL-8 activity, the amount of ^125 I-IL-8 bound to human neutrophils in the presence of various amounts of culture supernatants and purified monoclonal antibodies was measured. Neutrophils were prepared by using Mono-Poly Resolving Medium (M-PRM) (Flow Lab. Inc., McLean, Va). Briefly fresh, heparinized human blood was loaded onto M-PRM at a ratio of blood to medium, 3.5:3.0, and centrifuged at 300×g for 30 min at room temperature. Neutrophils enriched at the middle layer were collected and washed once in PBS. Such a preparation routinely contained greater than 95% neutrophils according to the Wright's Giemsa staining. The receptor binding assay was done as follows. 50 μl of ^125 I-IL-8 (5 ng/ml) was incubated with 50 μl of unlabeled IL-8 (100 μg/ml) or monoclonal antibodies in PBS containing 0.1% BSA for 30 min at room temperature. The mixture was then incubated with 100 μl of neutrophils (10^7 cells/ml) for 15 min at 37° C. The ^125 I-IL-8 bound was separated from the unbound material by loading mixtures onto 0.4 ml of PBS containing 20% sucrose and 0.1% BSA and by centrifugation at 300×g for 15 min. The supernatant was removed by aspiration and the radioactivity associated with the pellet was counted in a gamma counter.

IL-8 [8] = experiment: Neutrophil chemotaxis induced by IL-8, Boyden chamber method; type: cell-based, human; conditions: 1:10 ratio of IL-8 to mAb; IL-8 20 nM
Experimental: The ability of the anti-IL-8 antibodies to block neutrophil chemotaxis induced by IL-8 was tested as follows. Neutrophil chemotaxis induced by IL-8 was determined using a Boyden chamber method (Larsen, et al., Science 243:1464 (1989)). One hundred μl of human neutrophils (10^6 cells/ml) resuspended in RPMI containing 0.1% BSA were placed in the upper chamber and 29 μl of the IL-8 (20 nM) with or without monoclonal antibodies were placed in the lower chamber. Cells were incubated for 1 hr at 37° C. Neutrophils migrated into the lower chamber were stained with Wright's Giemsa stain and counted under the microscope (100×magnification). Approximately 10 different fields per experimental group were examined. Neutralizing monoclonal antibodies 5.12.14 and 4.1.3 blocked almost 70% of the neutrophil chemotactic activity of IL-8 at 1:10 ratio of IL-8 to mAb.

IL-8 [9] = experiment: Radioimmune precipitation test (RIP): capture of soluble 125I-IL-8; type: binding, human
Experimental: The ability of these monoclonal antibodies to capture soluble ^125 I-IL-8 was assessed by a radioimmune precipitation test (RIP). Briefly, tracer ^125 I-IL-8 (4×10^4 cpm) was incubated with various dilutions of the monoclonal anti-IL-8 antibodies in 0.2 ml of PBS containing 0.5% BSA and 0.05% Tween 20 (assay buffer) for 1 hr at room temperature. One hundred microliters of a predetermined concentration of goat anti-mouse Ig antisera (Pel-Freez, Rogers, Ariz.) were added and the mixture was incubated at room temperature for 1 hr. Immune complexes were precipitated by the addition of 0.5 ml of 6% polyethylene glycol (M.W. 8000) kept at 4° C. After centrifugation at 2,000×g for 20 min at 4° C., the supernatant was removed by aspiration and the radioactivity remaining in the pellet was counted in a gamma counter. Percent specific binding was calculated as (precipitated cpm--background cpm)/(total cpm--background cpm).

B1: anti-IL-8 monoclonal antibody 5.12.14 (antibody, V domains shown)
VH: EVQLVESGGGLVPPGGSLKLSCAASGFIFSSYGMSWVRQTPGKSLELVATINNNGDSTYYPDSVKGRFTISRDNAKNTLYLQMSSLKSEDTAMFYCARALISSATWFGYWGQGTLVTVSA
VL: DIVMTQSQKFMSTSVGDRVSVTCKASQNVGTNVAWYQQKPGQSPKALIYSSSYRYSGVPDRFTGSGSGTDFTLTISHVQSEDLADYFCQQYNIYPLTFGPGTKLELKR
Kd [1]: 0.3 nM | neutrophil chemotaxis induced by IL-8 (Boyden chamber) [2]: 70%

B2: 6G.4.25 Fab (antibody)
heavy: EIQLQQSGPELMKPGASVKISCKASGYSFSSHYMHWVKQSHGKSLEWIGYIDPSNGETTYNQKFKGKATLTVDTSSSTANVHLSSLTSDDSAVYFCARGDYRYNGDWFFDVWGAGTTVTVSSASTKGPSVFPLAPSSKSTSGGTAALGCLVKDYFPEPVTVSWNSGALTSGVHTFPAVLQSSGLYSLSSVVTVPSSSLGTQTYICNVNHKPSNTKVDKKVEPKSCDKTHT
light: DIVMTQTPLSLPVSLGDQASISCRSSQSLVHGIGNTYLHWYLQKPGQSPKLLIYKVSNRFSGVPDRFSGSGSGTDFTLRISRVEAEDLGLYFCSQSTHVPLTFGAGTKLELKRAVAAPTVFIFPPSSEQLKSGTASVVCLLNNFYPREAKVQWKVDNALQSGNSQESVTEQDSKDSTYSLSSTLTLSKADYEKHKVYACEVTHQGLSSPVTKSFNRGEC
inhibition of human IL-8 mediated neutrophil chemotaxis (Human IL-8 [3]): inhibition

B3: mAb 5.12.14: murine monoclonal antibody against human IL-8, isotype IgG2a, hybridoma ATCC HB 11553 (antibody, V domains shown)
VH: ASGFIFSSYGMSWVRQTPGKSLELVATINNNGDSTYYPDSVKGRFTISRDNAKNTLYLQMSSLKSEDTAMFYCARALISSATWFGYWGQGTLVTVSAAKTTAPSVYP
VL: KASQNVGTNVAWYQQKPGQSPKALIYSSSYRYSGVPDRFTGSGSGTDFTLTISHVQSEDLADYFCQQYNIYPLTFGPGTKLELKRADAAPPTVSIFPPFE
block of release of elastase from neutrophils (Human IL-8 [4]): effectively block | pI [5]: 6.2-7.4 | inhibition of binding of biotinylated mAb 4.1.3 by unlabeled mAb (IL-8 [6]): not by mAb 5.12.14 | inhibition of binding of biotinylated mAb 5.12.14 by unlabeled mAb (IL-8 [6]): significantly inhibited | inhibition of the binding of IL-8 to human neutrophils (IL-8 [7]): greater than 85% | block of the neutrophil chemotactic activity of IL-8 (IL-8 [8]): ~70% | capture of soluble 125I-IL-8 in the RIP (IL-8 [9]): very efficiently | % Specific Binding to IL-8 (IL-8 [9]; RIP, soluble 125I-IL-8): 98%

B4: 5.12.14 Fab (antibody)
heavy: EVQLVESGGGLVPPGGSLKLSCAASGFIFSSYGMSWVRQTPGKSLELVATINNNGDSTYYPDSVKGRFTISRDNAKNTLYLQMSSLKSEDTAMFYCARALISSATWFGYWGQGTLVTVSAASTKGPSVFPLAPSSKSTSGGTAALGCLVKDYFPEPVTVSWNSGALTSGVHTFPAVLQSSGLYSLSSVVTVPSSSLGTQTYICNVNHKPSNTKVDKKVEPKSCDKTHT
light: B3 VL
inhibition of human IL-8 mediated neutrophil chemotaxis (Human IL-8 [3]): inhibition
